Laboratory results reported in paper PMC12737591.

Target: recombinant prefusion F protein of RSV (rpF5), ectodomain fused with a T4 fibritin foldon trimerization domain (respiratory syncytial virus, subgroup A2 | bacteriophage T4) (UniProt P03420)
Assay: SDS-PAGE under reducing and non-reducing conditions; 10% gel, Coomassie blue staining; band of approximately 195 kDa under non-reducing and approximately 65 kDa under reducing conditions

Substance: recombinant prefusion F protein of RSV (rpF5), ectodomain fused with a T4 fibritin foldon trimerization domain (from UniProt P03420 26-513) (domain or fragment)
- stoichiometry N: 3
